Measured values: article PMC5487486

Legend:
[1] = target: TaFUSCA3 N-terminal region (1st to 60th amino acids) (Triticum aestivum); assay: two-hybrid; Gal4 system (pGADT7 and pGBKT7), yeast strain Y187, read out by growth and β-galactosidase (LacZ) activity, three replicates
[2] = target: TaSPA (Triticum aestivum); assay: as above
Chain of TaSPA (Triticum aestivum) (Q7X9A8 whole entry): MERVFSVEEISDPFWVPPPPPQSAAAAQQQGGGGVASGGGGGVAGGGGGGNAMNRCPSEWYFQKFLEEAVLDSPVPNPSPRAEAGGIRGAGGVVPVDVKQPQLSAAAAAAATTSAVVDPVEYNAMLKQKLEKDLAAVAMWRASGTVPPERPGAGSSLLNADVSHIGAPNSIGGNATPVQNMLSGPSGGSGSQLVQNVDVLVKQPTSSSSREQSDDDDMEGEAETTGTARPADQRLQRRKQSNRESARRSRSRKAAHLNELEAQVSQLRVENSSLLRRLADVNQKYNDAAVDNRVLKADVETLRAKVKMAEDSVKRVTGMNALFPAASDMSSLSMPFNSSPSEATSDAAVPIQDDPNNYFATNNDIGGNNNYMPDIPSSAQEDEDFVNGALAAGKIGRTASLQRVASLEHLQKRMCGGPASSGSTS

| fold β-galactosidase activity over the B3 domain with SPA [1] [fold] | fold β-galactosidase activity over AD-FUSCA3* with BD-SPA [2] [fold] | Substance |
| --- | --- | --- |
| 4 | – | TaSPA (from UniProt Q7X9A8 1-425) (natural protein) |
| – | 2 | TaFUSCA3 (natural protein) |
